pEC50: −log10 of the molar value.
What was measured:
[1] = molecular target: HIV-1 JR-FL envelope (Env) on pseudovirus (HIV-1 JR-FL)
[2] = molecular target: gp120 (ELISA antigen of FIG. 3, strain not stated) (HIV-1, strain not stated); test: ELISA on coated gp120, absorbance at 405 nm
[3] = molecular target: HIV-1 JR-FL envelope (Env) on pseudovirus (HIV-1 JR-FL); remark: listed apart in the source
[4] = molecular target: HIV-1JR-FL Env trimers on the surface of transfected 293T cells (Human immunodeficiency virus 1, strain JR-FL); test: JR-FL cell surface binding, flow cytometry on transfected 293T cells
[5] = molecular target: HIV-1 SF162 envelope N301A on pseudovirus (HIV-1 SF162) (UniProt P19550); test: cell-based or functional assay
[6] = molecular target: HIV-1 JRCSF envelope N332A on pseudovirus (HIV-1 JR-CSF) (UniProt P20871); test: cell-based or functional assay
[7] = molecular target: HIV-1 JRCSF envelope N301A on pseudovirus (HIV-1 JR-CSF) (UniProt P20871); test: cell-based or functional assay
[8] = molecular target: HIV-1 BaL envelope N301A on pseudovirus (HIV-1 BaL); test: cell-based or functional assay
[9] = molecular target: HIV-1 ADA envelope N301A on pseudovirus (HIV-1 ADA); test: cell-based or functional assay
[10] = molecular target: HIV-1 ADA envelope N332A on pseudovirus (HIV-1 ADA); test: cell-based or functional assay
[11] = molecular target: HIV-1 JRFL envelope N301A on pseudovirus (HIV-1 JR-FL); test: cell-based or functional assay
[12] = molecular target: HIV-1 BaL envelope N332A on pseudovirus (HIV-1 BaL); test: cell-based or functional assay
[13] = molecular target: HIV-1 JRFL envelope N332A on pseudovirus (HIV-1 JR-FL); test: cell-based or functional assay
[14] = molecular target: HIV-1 SF162 envelope N332A on pseudovirus (HIV-1 SF162) (UniProt P19550); test: cell-based or functional assay
[15] = molecular target: HIV-1 92RW020 envelope N332A on pseudovirus (HIV-1 92RW020); test: cell-based or functional assay
[16] = molecular target: engineered outer domain mini-V3 (eODmV3), glycosylated gp120 outer domain construct (HIV-1 (base strain HxB2; mini-V3 based on JR-FL)); test: ELISA of IgG PGT 128 (FIG. 13)
[17] = molecular target: HIV-1YU2 Env on the surface of transfected 293T cells (Human immunodeficiency virus 1, strain YU2); test: flow cytometry on HIV-1YU2 Env-transfected 293T cells, MFI
[18] = molecular target: JR-FL core + mini-V3; test: ELISA on coated antigen, OD 405

128 (-ASYWNR) (antibody)
IC50 (read off the curve; HIV-1JR-FL pseudovirus) [1]: 0.7 mg/L
EC50 (read off the curve) [2]: 0.7 mg/L

PGT 127 IgG (antibody)
IC50 (JR-FL neutralization) [3]: 0.18 nM
pEC50 [4]: 8.51
IC50 (read off the curve; HIV-1JR-FL pseudovirus) [1]: 0.02 mg/L
fold change in IC50 of variant envelope compared to WT envelope [5]: > 200 fold
fold change in IC50 of variant envelope compared to WT envelope [6]: > 200 fold
fold change in IC50 of variant envelope compared to WT envelope [7]: > 250 fold
fold change in IC50 of variant envelope compared to WT envelope [8]: > 200 fold
fold change in IC50 of variant envelope compared to WT envelope [9]: > 200 fold
fold change in IC50 of variant envelope compared to WT envelope [10]: > 200 fold
fold change in IC50 of variant envelope compared to WT envelope [11]: > 200 fold
fold change in IC50 of variant envelope compared to WT envelope [12]: > 200 fold
fold change in IC50 of variant envelope compared to WT envelope [13]: > 200 fold
fold change in IC50 of variant envelope compared to WT envelope [14]: > 200 fold
fold change in IC50 of variant envelope compared to WT envelope [15]: 6.3 fold
EC50 (read off the curve) [2]: 0.08 mg/L

PGT 128 IgG (antibody)
apparent affinity [16]: 46 nM
IC50 (JR-FL neutralization) [3]: 0.09 nM
pEC50 [4]: 8.55
IC50 (read off the curve; HIV-1JR-FL pseudovirus) [1]: 0.01 mg/L
EC50 (read off the curve) [17]: 8 nM
fold change in IC50 of variant envelope compared to WT envelope [5]: > 200 fold
fold change in IC50 of variant envelope compared to WT envelope [6]: 1.4 fold
fold change in IC50 of variant envelope compared to WT envelope [7]: 10.7 fold
fold change in IC50 of variant envelope compared to WT envelope [8]: > 200 fold
fold change in IC50 of variant envelope compared to WT envelope [9]: > 200 fold
fold change in IC50 of variant envelope compared to WT envelope [10]: > 200 fold
fold change in IC50 of variant envelope compared to WT envelope [11]: > 200 fold
fold change in IC50 of variant envelope compared to WT envelope [12]: > 200 fold
fold change in IC50 of variant envelope compared to WT envelope [13]: > 200 fold
fold change in IC50 of variant envelope compared to WT envelope [14]: > 200 fold
fold change in IC50 of variant envelope compared to WT envelope [15]: 1.6 fold
EC50 (read off the curve) [2]: 0.04 mg/L
EC50 (read off the curve) [18]: 2 nM

Source: patent US9999664B2, “HIV-1 gp120 mini V3 loop and uses thereof” (The Scripps Research Institute, priority 2011, dated 2018)
